Test results: patent US9192648

Target: complement C5
Test: assay for the IC50 not described; told with the direct binding to C5 (FIG. 4C)

Substance: EV576 protein (from UniProt Q5YD59 19-168)
- IC50: 20 µg/mL
